# According to the nanobody polyreactivity screen of Harvey et al. (2022):
# Test: yeast display, Sf9 membrane polyspecificity reagent, FACS + sequencing; frameworks hold sequencing errors
# Procedure, shortened: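 Genes from sorted yeast were amplified by colony PCR, read by MiSeq 2 × 250 sequencing and filtered on CDR length. These cells carried a synthetic nanobody library in Saccharomyces cerevisiae BJ5465 and were sorted by FACS into low and high (top ~1%) gates on anti-HA and streptavidin fluorescence. Polyreactivity is labelled according to the gate of origin.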
row,Sequence,polyreactivity (PSR sort gate)
1,QVQLVESGGGLVQAGGSLRLSCAASGRIISSYAMVWYRQAPGKETELVAAISWDGGSTYYADSVKGRFTISRDNANNTVYLQMNSLKPEDTAVYYCATDATRPWYDYWGQGTQVTVSS,low polyreactivity
2,QVQLVESGGGLVQAGGSLRLSCAASGFTFHKYAMGWYRQAPGKERELVAAITSSGGSTYYADSVKGRFTISRDNAKNTVYLQMNSLKPEDTAVYYCNARGGGRKSYDYWGQGTQVTVSS,high polyreactivity
3,QVQLVESGGGLVQAGGSLRLSSAASGSTFFTNALGWYRPAPGKERELGAVITKRGGSTYYADSVKGRFTISRDNAKNPVYLQMNSLKPEDTAVYYCAARIPKQQGYGYWGQGTQVTVSS,high polyreactivity
4,QFQLVESGGGLVQAGGRLRLSCAASGRIFQLYTMGWYRQAPGKEREFVASISFITGRTYYADSVKGRFTISRDNAKKTVYLQMNSLKPEDTAVYYCNTRYDGGFDSWGQGTQVTVSS,high polyreactivity
5,QVQLVESGGGLVQAGGSLRLSCAASGLTFANYAMGWYRQAPGKERELVAAISTWSGGSTYYADSVKGRFTISRDHAKNTVYLQMNSLKPEDTAVYYCNTDRYWGKGDYWGQGTQVTVSS,high polyreactivity
6,QVQLVESGGGLDQAGGSLRLSCAASGSIFYDNTMAWYRQAAGKERDLVADISSGDSTYYADSVKGRFTISRDNAKNTVYLQMNSLKPEDTAVYYCNADVYSWVSVKEGDYWGQGTEVTVSS,low polyreactivity
7,QVQLVESGGGLVQAGGSLRLTCDASGSIIRLYAMVWYRQAPGKERELVDAISYNSGTTYYADSVKGRFTISRDNAKNTVYLQMNSLKPADTAVYYCAARRYYNYDWRQGTQVTVSS,high polyreactivity
8,QGQLVESGGGLVQAGGSLRLTCAASGSTFDQNVMGWYRQAPGKERELVDTINFSGDSTYYADSVKGRFTISRDNAKNTVYLQRNSLKPEDTAVYYCAVDWGEYIDTSVKRDISSYWGQGTQVTVSS,low polyreactivity
9,QVQLVESGGGLVQAGGSLRLSCAASGFIFRVNALGGSRPAPGKERVLVAARISSSGSTYYADSVKGRFTISRDNAKNTVYLQMNSLKPEDTAVYYCAADPYYLQQFDYWGQGTQVTVSS,low polyreactivity
10,QVQLVEPGGGLVQAGGSLRLSCAASGRTFYRYAMGWYRQAPGKERELVAAITWSGGRTYYADSVKGRFTMSRDYAKNTVYLQMNSLKPEDTAVYYCAADNSYRGYHSPYDYWGQGTQVTVSS,low polyreactivity
11,QVQLVESGGRLVQAGGSLRLSCAASGRIFAYYAMGWYRQAPGKERELVAAISRSGVSTYYADSVKGRFTISRDNAKNTVYLQMNSLKPEDTAVYYCAARWRSGFTSGDYWGQGTQVTVSS,low polyreactivity
12,QVQLVESGGGLVQAGGSLRLSCAASGLIFRYYTMGWYRQAPGKERELVATITKSGSSTYYADSVKGRFTISRDNAKNTVYLQMNSLKPEDTAVYYCAARAYPSYPRGVYAYYYWGQGTQVTVSS,high polyreactivity
13,QVQLQESGGGLVQAGGSLRLSCAASGSISNSAAKVWYRQAPGKERELVVSIGHGASSNYADSVKGRFTISRDNAKNTVYLQMNSLKPEDTAVYYCAAYPGFLDGFFYWGQSTQVTVSS,high polyreactivity
14,QVQLVESGGGLVQAGGSLRLSCAASGSIFAFNGMGGYRPAPGKERELVAGITISDSTNYADSVKGRFTISRDNAKNTVSLQMNSLKPEVTAVYYCNADYEQYVYWYWFIKYDYWGQVTQVTVSS,low polyreactivity
15,QVQLVESGGGLVQAGGSLRLSCAASGRTFRNYAMGWYRQAPGKERELVAGITSGGSTNYADSVKGRFTISRDNAKNTVYLQMNSLKPEDTAVYYCNAVRPFYWFWYYGYWGQGTQVTVSS,low polyreactivity
16,QVQLVESGGGLVQAGGSLRLSCAASGSTFVYNVMGWYRQAPGKERELVAAITSGVRTYYADSVKGRFTISRDNAMNTVYLQMNSLKPEDTAVYYCATGLRYAKYYYWGQGTQVTVSS,high polyreactivity

row,Sequence,polyreactivity (PSR sort gate)
1,QVQLVESGGGLVQAGGSLRLSCAASGSILYVYALAWYRQAPGKERALVAAIYSGASTYYADSVKGRFTISPDNAKNTVYFQMNSLIPEETAVYYCAAYVFFQTYFSYYVEGDYWGQGTQVTVSS,low polyreactivity
2,QVQLVESGGGLVQAGGSLRLSCADSGPTIFYYAMGWYRTAPGKERELVAAIRRSGGRTRYADSVKGRFTISRDNAKNTVYLQMNSLKPEDTAVYYCAADDGTHRRGYDYWGQGTQVTVSS,low polyreactivity
3,QVQLVESGGGLVQAGGSLRLSCAASGSIFEYNGMGWYRQAPGKERELVAAITTTGTTDYADSVKGRFTISRDNAKNTVYLEMNSLIPEDTSVFYCAADYTYYYKGEYEYWGQGTQVTVSS,low polyreactivity
4,QVQLVESGGGLVQAGGSLRLSCAASGSTFYYYAMGWYRQAPGKERELVASITTGGGSTYYADSVKGRFTISRDYAKNTVYLQMNSLKPEDTAVYYCAAALAYYYWWYDYWGQGTQVTVSS,low polyreactivity
5,QVQRVESGGGLVQAGGSLRLSCAASGRISSWNAMGWYRQAPGKERELVATISRRGGSTYYADSVKGRFTISRDNAKNTVYFQMNSLKQEDTAVYYCAKSSWTYGAYNYWGQGTQVTVSS,high polyreactivity
6,QVQLVESGGGLVQAGGSLRLSCAASGFTFPRYAMGWYRQAPGKERELVAAISYSGGRTYYADSVKGRFTISRDNAKNTVYFQMNSLKPEDTAVYYFATEASTKRYDYWGQGTQVSVSS,high polyreactivity
7,QVQLVESGGGLVQAGGSLRLSCAASGSTFFRNAMGWYRQAPGKERELVAAISGSGNTYYADSVKGRFTISRDNAKNTVYLQMNSLKPEDTAVYYCADDVVYWYFHYDYWGQGTQVTVSS,low polyreactivity
8,QVQLVESGGGLVQAGGSLRLSCAASGSIFTEKAMGWYRQAPGKERELVATITITGSTNYADSVKGRFTISRDNAKNTVYLQLNSLKPEETAVYYCNADLYIAFSASAYDYWGQGTQVTVSS,low polyreactivity
9,QVQLVESGGGLVQAGGSLRLSCAASGTTFRANAMGWYRQAPAKERELVAAITSGGSTNYADSVKGRFTISRDNAKNTVYLQMNSLKPEDTAVYYCAKETYYGTDNFGQVGGEMDYWGQGNQVTVSS,low polyreactivity
10,QVQLVESGGGLVQAGGSLRLSCAASGRIFDNNAMGWYRQAPGKERELVAAIDWRGGSTDYADSVKGRFTISRDNAKNNVYLHMNSLKQEDTAVYYCVAGHVRYWHGYSYDYWGQGTQVTVSS,low polyreactivity
11,QVQLVESGGGLVQAGGSLRLSCAASGRILSRYAMGWYRQAPGKERELVAAINKSGGSTYYADSVKGRFTISRDNAKNTVYLQMNSLKPEDTAVFYCNAVYYWYKGDYWGQGTQVTVSS,high polyreactivity
12,QVQLVESGGGLVQEGGSLCLSCAASGINFYYYTMGWYRQATGKERELVDAISGDDTHYADSVKGRFTISGDNAKKTVYLLMNSLKADHTAVYYCAAGYIYWDTVQSVYEYGYCGQGTQVTVSS,low polyreactivity
13,QVQLVESGGGLVQAGGSLRLSCAASGFIFAGYHMAWYRQAPGKERELVAAISSSGANTYYADSVKGRFTISRDNAKNTVYLQMNSLKPEYSAVYYCAALYHWTYDYWGQGTQVTVSS,low polyreactivity
14,QVQLVESGGGLVQAGGSLRLSCAASGLTITYNAMGWYRQAPGKERELVAAISWSGDSTYADSVKGRFTISRDNAKNTVYLQKNSLKPEDTAVYYCAVPKYYYYVSRFNYWGQGTQVTVSS,high polyreactivity
15,QVQLVESGGGLVQAGGSLRLSCAASGRIFDGYDMGGYRQAPGQEREWVAAITSVGSTNYADSVKGRFTISRDNAKNTVYLQMNSLKPDDTAVYYCAAVLYVFYDDYGYWEYFSQYDYWGQGTQVTVSS,low polyreactivity
16,QVQLVESGGGLVQAGGSLRLSCAASGSIFYRYAKGWYRQPPGKETELVAAIRTTGGRTYYADSVKGRFTISRDNAKNTVYLQMNSLKPADTAVYYCNALQAGVSYDYWGQGTQVTVSS,high polyreactivity
